# Laboratory results reported in patent US20230357429A1 (JANUX THERAPEUTICS, published 2023).
# Where two headings read alike, the source gives them in different places. Where no end group is shown, it is not given here.
# T1: Human TROP2 ECD (31-274 AA), biotinylated (human, UniProt P09758 31-274, biotinylated (site not stated))
# T1 construct: also called tumor-associated calcium signal transducer 2; Human TROP2-biotin
# T1 sequence: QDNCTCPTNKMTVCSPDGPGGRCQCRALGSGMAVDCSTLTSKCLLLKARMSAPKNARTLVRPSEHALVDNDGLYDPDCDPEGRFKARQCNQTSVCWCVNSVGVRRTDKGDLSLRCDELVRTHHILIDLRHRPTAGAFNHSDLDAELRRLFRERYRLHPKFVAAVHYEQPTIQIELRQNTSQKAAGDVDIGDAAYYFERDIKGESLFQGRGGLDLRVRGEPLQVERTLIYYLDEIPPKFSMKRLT
# T2: Peptide-65 (cysteine pairing not given here; also: biotinylated, site not given here)
# T2 construct: mask peptide for the CD3 scFv
# T2 peptide: QGCGTIADPEPHCW
# T3: Peptide-68 (cysteine pairing not given here; also: biotinylated, site not given here)
# T3 construct: mask peptide for the CD3 scFv
# T3 peptide: DWCWYSPDNDGLCD
# T4: Peptide-69 (cysteine pairing not given here; also: biotinylated, site not given here)
# T4 construct: mask peptide for the CD3 scFv
# T4 peptide: SECLVDLQSDPCYW
# T5: Peptide-71 (cysteine pairing not given here; also: biotinylated, site not given here)
# T5 construct: mask peptide for the CD3 scFv
# T5 peptide: VDCGPDGDESILCY
# T6: Peptide-72 (cysteine pairing not given here; also: biotinylated, site not given here)
# T6 construct: mask peptide for the CD3 scFv
# T6 peptide: AYCGPEFDESVGCM
# T7: Peptide-74 (cysteine pairing not given here; also: biotinylated, site not given here)
# T7 construct: mask peptide for the CD3 scFv
# T7 peptide: ASQCLGPEWEVCPY
# T8: Peptide-75 (cysteine pairing not given here; also: biotinylated, site not given here)
# T8 construct: mask peptide for the CD3 scFv
# T8 peptide: GSACLGPEWEVCPY
# T9: Peptide-70 (cysteine pairing not given here; also: biotinylated, site not given here)
# T9 construct: mask peptide for the CD3 scFv
# T9 peptide: YLCGPDGDETLACY
# T10: Peptide-73 (cysteine pairing not given here; also: biotinylated, site not given here)
# T10 construct: mask peptide for the CD3 scFv
# T10 peptide: VYCGPEFDESVGCA
# T11: Peptide-76 (cysteine pairing not given here; also: biotinylated, site not given here)
# T11 construct: mask peptide for the CD3 scFv
# T11 peptide: YLCGPDADETLACY
# T12: Peptide-66 (cysteine pairing not given here; also: biotinylated, site not given here)
# T12 construct: mask peptide for the CD3 scFv
# T12 peptide: GSQCLGPEWEVCPY
# T13: Peptide-67 (cysteine pairing not given here; also: biotinylated, site not given here)
# T13 construct: mask peptide for the CD3 scFv
# T13 peptide: VYCGPEFDESVGCM
# B1: Peptide-77 (peptide)
# peptide: YLCGPDTDETLACY
# modifications: cysteine pairing not given here; also: biotinylated, site not given here
# notes: mask peptide for the CD3 scFv
# Key:
# [1] = target: T1, Human TROP2 ECD (31-274 AA), …; assay: ELISA on immobilized TROP2
# [2] = target: T14, TCE-37 (anti-CD3 scFv F104A; anti-TROP2 F108A); assay: competition ELISA, TCE on captured CD3
# T14 construct: scFv on the Fab heavy chain
# Peptide-65 = target: T2, Peptide-65; assay: ELISA, TCE on captured biotin-peptide
# Peptide-68 [3] = target: T3, Peptide-68; assay: ELISA, TCE on captured biotin-peptide
# Peptide-69 [4] = target: T4, Peptide-69; assay: ELISA, TCE on captured biotin-peptide
# Peptide-71 [5] = target: T5, Peptide-71; assay: ELISA, TCE on captured biotin-peptide
# Peptide-72 [6] = target: T6, Peptide-72; assay: ELISA, TCE on captured biotin-peptide
# Peptide-74 [7] = target: T7, Peptide-74; assay: ELISA, TCE on captured biotin-peptide
# Peptide-75 [8] = target: T8, Peptide-75; assay: ELISA, TCE on captured biotin-peptide
# Peptide-70 = target: T9, Peptide-70; assay: ELISA, TCE on captured biotin-peptide
# Peptide-73 [9] = target: T10, Peptide-73; assay: ELISA, TCE on captured biotin-peptide
# Peptide-76 = target: T11, Peptide-76; assay: ELISA, TCE on captured biotin-peptide
# Peptide-77 = target: B1; assay: ELISA, TCE on captured biotin-peptide
# [10] = target: T15, CD3 (biotinylated CD3 antigen) (human, UniProt P07766 23-126, limits assumed, biotinylated (site not stated)); assay: ELISA, TCE on captured biotin-CD3
# T15 construct: also called CD3ε; human CD3
# Peptide-66 [11] = target: T12, Peptide-66; assay: ELISA, TCE on captured biotin-peptide
# [12] = target: T15, CD3 (biotinylated CD3 antigen); assay: ELISA, TCE on captured biotin-CD3; remark: listed apart in the source
# Peptide-66 [13] = target: T12, Peptide-66; assay: ELISA, TCE on captured biotin-peptide
# Peptide-67 = target: T13, Peptide-67; assay: ELISA, TCE on captured biotin-peptide
# Peptide-68 [14] = target: T3, Peptide-68; assay: ELISA, TCE on captured biotin-peptide
# Peptide-69 [15] = target: T4, Peptide-69; assay: ELISA, TCE on captured biotin-peptide
# Peptide-71 [16] = target: T5, Peptide-71; assay: ELISA, TCE on captured biotin-peptide
# Peptide-72 [17] = target: T6, Peptide-72; assay: ELISA, TCE on captured biotin-peptide
# Peptide-73 [18] = target: T10, Peptide-73; assay: ELISA, TCE on captured biotin-peptide
# Peptide-74 [19] = target: T7, Peptide-74; assay: ELISA, TCE on captured biotin-peptide
# Peptide-75 [20] = target: T8, Peptide-75; assay: ELISA, TCE on captured biotin-peptide
# [21] = target: T15, CD3 (biotinylated CD3 antigen); assay: ELISA: biotinylated CD3 captured on neutravidin plates, TCE titrated, HRP secondary antibody
# T15 sequence (P07766 23-126 limits assumed): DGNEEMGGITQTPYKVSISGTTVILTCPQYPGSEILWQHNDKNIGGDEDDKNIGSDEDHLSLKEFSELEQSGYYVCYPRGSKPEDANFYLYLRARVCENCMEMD
binder,measurement,setting,value
"PC-2 (bispecific antibody, anti-TROP2 wt) light: GGIDFCMLYNWPICAGGGGGSSGGSAAGLLAPPGGLSGRSDAGGGGSDIQLTQSPSSLSASVGDRVSITCKASQDVSIAVAWYQQKPGKAPKLLIYSASYRYTGVPDRFSGSGSGTDFTLTISSLQPEDFAVYYCQQHYITPLTFGAGTKVEIKRTVAAPSVFIFPPSDEQLKSGTASVVCLLNNFYPREAKVQWKVDNALQSGNSQESVTEQDSKDSTYSLSSTLTLSKADYEKHKVYACEVTHQGLSSPVTKSFNRGEC heavy: not shown",EC50,[1],78.5 nM
"PC-3 (bispecific antibody, anti-TROP2 wt) light: GGVDFCKIYSWPVCHQGGGGSSGGSAAGLLAPPGGLSGRSDAGGGGSDIQLTQSPSSLSASVGDRVSITCKASQDVSIAVAWYQQKPGKAPKLLIYSASYRYTGVPDRFSGSGSGTDFTLTISSLQPEDFAVYYCQQHYITPLTFGAGTKVEIKRTVAAPSVFIFPPSDEQLKSGTASVVCLLNNFYPREAKVQWKVDNALQSGNSQESVTEQDSKDSTYSLSSTLTLSKADYEKHKVYACEVTHQGLSSPVTKSFNRGEC heavy: not shown",EC50,[1],64.6 nM
"PC-4 (bispecific antibody, anti-TROP2 wt) light: not shown heavy: GGIDFCMLYNWPICAGGGGGSSGGSAAGLLAPPGGLSGRSDAGGGGSQVQLQQSGSELKKPGASVKVSCKASGYTFTNYGMNWVKQAPGQGLKWMGWINTYTGEPTYTDDFKGRFAFSLDTSVSTAYLQISSLKADDTAVYFCARGGFGSSYWYFDVWGQGSLVTVSSASTKGPSVFPLAPSSKSTSGGTAALGCLVKDYFPEPVTVSWNSGALTSGVHTFPAVLQSSGLYSLSSVVTVPSSSLGTQTYICNVNHKPSNTKVDKKVEPKSC",EC50,[1],32.8 nM
B1,IC50,[2],8870 nM
"TCE-11 (anti-CD3 scFv H101A; anti-TROP2 wt) (bispecific antibody, scFv on the Fab heavy chain; also called TCE-11 (H101A)) light: DIQLTQSPSSLSASVGDRVSITCKASQDVSIAVAWYQQKPGKAPKLLIYSASYRYTGVPDRFSGSGSGTDFTLTISSLQPEDFAVYYCQQHYITPLTFGAGTKVEIKRTVAAPSVFIFPPSDEQLKSGTASVVCLLNNFYPREAKVQWKVDNALQSGNSQESVTEQDSKDSTYSLSSTLTLSKADYEKHKVYACEVTHQGLSSPVTKSFNRGEC heavy: not shown",EC50,Peptide-65,6.92 nM
same,EC50,Peptide-68 [3],60.9 nM
same,EC50,Peptide-69 [4],6.94 nM
same,EC50,Peptide-71 [5],1.28 nM
same,EC50,Peptide-72 [6],1.36 nM
same,EC50,Peptide-74 [7],0.83 nM
same,EC50,Peptide-75 [8],1.05 nM
"TCE-36 (anti-CD3 scFv H101A; anti-TROP2 F108A) (bispecific antibody, scFv on the Fab heavy chain) light: DIQLTQSPSSLSASVGDRVSITCKASQDVSIAVAWYQQKPGKAPKLLIYSASYRYTGVPDRFSGSGSGTDFTLTISSLQPEDFAVYYCQQHYITPLTFGAGTKVEIKRTVAAPSVFIFPPSDEQLKSGTASVVCLLNNFYPREAKVQWKVDNALQSGNSQESVTEQDSKDSTYSLSSTLTLSKADYEKHKVYACEVTHQGLSSPVTKSFNRGEC heavy: not shown",EC50,Peptide-70,0.59 nM
same,EC50,Peptide-73 [9],4.11 nM
same,EC50,Peptide-76,166 nM
same,EC50,Peptide-77,1620 nM
"TCE-13 (anti-CD3 scFv N103A; anti-TROP2 wt) (bispecific antibody, scFv on the Fab heavy chain; also called TCE-13 (N103A)) light: DIQLTQSPSSLSASVGDRVSITCKASQDVSIAVAWYQQKPGKAPKLLIYSASYRYTGVPDRFSGSGSGTDFTLTISSLQPEDFAVYYCQQHYITPLTFGAGTKVEIKRTVAAPSVFIFPPSDEQLKSGTASVVCLLNNFYPREAKVQWKVDNALQSGNSQESVTEQDSKDSTYSLSSTLTLSKADYEKHKVYACEVTHQGLSSPVTKSFNRGEC heavy: not shown",EC50,[10],1.69 nM
same,EC50,Peptide-65,2.71 nM
same,EC50,Peptide-69 [4],1.69 nM
same,EC50,Peptide-71 [5],0.34 nM
same,EC50,Peptide-74 [7],0.36 nM
"TCE-14 (anti-CD3 scFv F104A; anti-TROP2 wt) (bispecific antibody, scFv on the Fab heavy chain; also called TCE-14 (F104A)) light: DIQLTQSPSSLSASVGDRVSITCKASQDVSIAVAWYQQKPGKAPKLLIYSASYRYTGVPDRFSGSGSGTDFTLTISSLQPEDFAVYYCQQHYITPLTFGAGTKVEIKRTVAAPSVFIFPPSDEQLKSGTASVVCLLNNFYPREAKVQWKVDNALQSGNSQESVTEQDSKDSTYSLSSTLTLSKADYEKHKVYACEVTHQGLSSPVTKSFNRGEC heavy: not shown",EC50,[10],0.83 nM
same,EC50,Peptide-65,1.52 nM
same,EC50,Peptide-66 [11],0.63 nM
same,EC50,Peptide-69 [4],1.93 nM
same,EC50,Peptide-74 [7],0.66 nM
same,EC50,Peptide-75 [8],0.88 nM
"TCE-33 (anti-CD3 scFv F240A; anti-TROP2 wt) (bispecific antibody, scFv on the Fab heavy chain; also called TCE-33 (F240A)) light: DIQLTQSPSSLSASVGDRVSITCKASQDVSIAVAWYQQKPGKAPKLLIYSASYRYTGVPDRFSGSGSGTDFTLTISSLQPEDFAVYYCQQHYITPLTFGAGTKVEIKRTVAAPSVFIFPPSDEQLKSGTASVVCLLNNFYPREAKVQWKVDNALQSGNSQESVTEQDSKDSTYSLSSTLTLSKADYEKHKVYACEVTHQGLSSPVTKSFNRGEC heavy: not shown",EC50,[12],1.24 nM
same,EC50,Peptide-66 [13],8.02 nM
same,EC50,Peptide-67,5.78 nM
same,EC50,Peptide-68 [14],7.71 nM
same,EC50,Peptide-69 [15],0.76 nM
same,EC50,Peptide-71 [16],21.7 nM
same,EC50,Peptide-72 [17],5.78 nM
same,EC50,Peptide-73 [18],8.15 nM
same,EC50,Peptide-74 [19],5.9 nM
same,EC50,Peptide-75 [20],9.2 nM
same,EC50,[21],0.601 nM
